Measurements as given in patent publication US20040171116A1.
Substitutions are numbered along the chain they refer to. Each block holds one molecule with its values, some of them ahead of it.

Experiments:
[1] = target: mutated rMal d 1 (2781) (apple) (UniProt Q40280); experiment: Biacore SPR, BV16 on the chip, antigen injected at 5 concentrations
[2] = target: rBet v 1.2801 (database accession number: Z80104) (birch); experiment: as above
[3] = target: receptor-bound IgE on basophils of birch pollen allergic patients; experiment: cell-based or functional assay
[4] = target: pooled IgE serum from birch allergic patients (FIG. 8A); experiment: solid phase IgE inhibition assay (ADVIA Centaur), inhibitor at 3000 ng/test, competitor biotinylated rBet v 1.2801
[5] = target: pooled IgE serum from birch allergic patients (FIG. 8A); experiment: solid phase IgE inhibition assay (ADVIA Centaur), reference rBet v 1.2801

Molecule: monoclonal mouse IgG antibody BV16 raised against nBet v 1
Kd [1]: 0.27 nM
kon [1]: 120000 M⁻¹ s⁻¹
Kd [2]: 0.24 nM
koff [2]: 2.5e-05 s⁻¹
kon [2]: 100000 M⁻¹ s⁻¹

B2: mutated rMal d 1 (2762) (protein)
chain: GVYTYENEYTSVIPPARLFKAFVLDADNLIPKIAPQAIKHAEILEGDGGPGTIKKITFGEGSQYGYVKHKIDSVDEANYSYAYTLIEGDALTDTIEKVSYETKLVATPDGGSIIKSISHYHTKGDVEIMEEHVKAGKEKAHGLFKLIESYLLDHSDAYN
percent inhibition of binding of serum-IgE to biotinylated rBet v 1.2801 [4]: 62%
fold higher antigen concentration than rBet v 1.2801 to reach the same IgE inhibition (62%) [5]: 500 fold

B3: mutated rMal d 1 (2781), Q40280 2-159 (protein)
chain: GVYTYENEYTSEIPPPRLFKAFVLDADNLIPKIAPQAIKHAENIEGNGGPGTIKKITFGEGSQYKYVKHRIDSVDHANYSYAYTLIEGDALTDTIEKVSYETKLVASGSGSIIKSISHYHTKGDVEIMEEHVKAGKEKAHGLFKLIESYLKDHPDAYN
shift of the histamine release curve toward higher antigen concentrations compared to rBet v 1.2801 [3]: 2 fold

Next, values leading:

shift of the histamine release curve toward higher antigen concentrations compared to rBet v 1.2801 [3]: 20 fold
B1: mutated rMal d 1 (2762), Q40280 2-159 (protein)
chain: B2 chain

concentration required to trigger histamine release in patient (p) compared to rBet v 1.2801 [3]: 100 fold
B4: mutated rMal d 1 (2760), Q40280 2-159 (protein)
chain: B3 chain with N28T, K32Q, N43I, I44L, E45S, N47D, K65G, R70K, H76E

percent inhibition of binding of serum-IgE to biotinylated rBet v 1.2801 [4]: 39%
fold higher antigen concentration than rBet v 1.2801 to reach the same IgE inhibition (39%) [5]: 1000 fold
B5: mutated rMal d 1 (2781) (protein)
chain: B3 chain
